Results reported in US10357549B2, “Pigment epithelium-derived factor (PEDF) and peptide derivatives thereof for use in osteoblast differentiation and bone growth” (Yale University, priority 2014, dated 2019).

How the values were obtained:
[1] = system: β-catenin; assay: Active β-catenin and mature osteoblast gene expression in hMSC cultures with Wnt3a and PEDF peptides; assay type: cell-based, human
Description: Experiments were conducted to evaluate the effect of Wnt3a and PEDF-derived peptides on β-catenin, a transcriptional regulator of osteoblast differentiation. Cultures incubated in 50 ng/ml Wnt3a alone or in combination with 100 nM PEDF-derived peptides.

[2] = system: hMSCs; assay: Mineralization of hMSCs under continuous Wnt3a (Alizarin red, 21 days); assay type: cell-based, human
Description: Experiments were conducted to evaluate the effect of PEDF-derived peptides on the mineralization of hMSCs. […] For “late” groups, PEDF 34-mer was added only during the last 8 days of the differentiation protocol. Mineralization was assessed by Alizarin red staining (FIG. 14C).

[3] = system: Wnt cell surface receptor LRP6; assay: Canonical Wnt-β-catenin signaling in hMSCs (immunoblot of phospho-LRP6 and active β-catenin); assay type: cell-based, human; settings: for LRP6 phosphorylation: hMSCs, Wnt3a 50 ng/ml, PEDF 500 ng/ml
Description: The inhibitor of Wnt production (IWP-2; Tocris Bioscience, Minneapolis, Minn., USA; 2 μM×24-48 h) was used to block production of endogenous Wnt proteins (Chen et al., 2009, Nat Chem Biol, 5: 100-107; Clevers et al., 2012, Cell, 149: 1192-1205). All other chemicals, unless indicated, were purchased from Sigma (St. Louis, Mo., USA).
(§1) Adipose-derived hMSCs [American Type Culture Collection (ATCC), Manasses, Va., USA; PCS-500-011) were propagated in MSC basal medium supplemented with MSC growth kit (ATCC). Cells were CD29, CD44, CD105, and CD166 positive and negative for CD 31, CD34, and CD45. Interrogation of Wnt-β-catenin signaling was done in ATCC MSC basal medium with 2% FBS. PEDF (500 ng/ml) was added for 6 h. Passage 2 and 3 hMSCs were used for Wnt signaling experiments. For adipocyte conversion, cells (5000 cells/cm^2) were placed in adipocyte differentiation medium (ATCC; PCS-500-050) for 9-10 d. For osteoblast differentiation, cells (5000 cells/cm^2) were differentiated in osteoblast differentiation medium (ATCC; PCS-500-052) for 10-21 d. Alkaline phosphatase kit (Sigma) was used to stain osteoblasts.
(§2) Immunoblotting was performed as described previously (Schmitz et al., 2011, Am J Pathol, 179: 2990-2999). Proteins were separated by 10% SDS-PAGE on gradient gels (Bio-Rad, Hercules, Calif., USA). Antibodies against nonphosphorylated β-catenin, total β-catenin, phospho-LRP6 (serine 1490), total LRP6 (Cell Signaling Technologies, Danvers, Mass., USA), and alkaline phosphatase (Developmental Studies Hybridoma Bank, University of Iowa, Iowa City, Iowa, USA). To assess signaling through the Wnt coreceptor LRP6, 3T3 adipocyte precursors with vector and LRP6-KO shRNA were used (Liu et al., 2012, J Biol Chem, 287: 7213-7223). On confluence, cells were serum starved for 48 h, and then changed to DMEM with 10% FCS (d 0). PEDF (10 nM) was added on d 0, and cells were harvested after 48 h. Knockdown was confirmed by immunoblotting for total LRP6. β-actin (Sigma) was used as a loading control.

[4] = system: hMSCs; assay: Osteoblast differentiation of hMSCs (alkaline phosphatase); assay type: cell-based, human; settings: PEDF added to hMSCs
Description: as §1
Immunoblotting was performed as described previously (Schmitz et al., 2011, Am J Pathol, 179: 2990-2999). Proteins were separated by 10% SDS-PAGE on gradient gels (Bio-Rad, Hercules, Calif., USA). Antibodies against nonphosphorylated β-catenin, total β-catenin, phospho-LRP6 (serine 1490), total LRP6 (Cell Signaling Technologies, Danvers, Mass., USA), and alkaline phosphatase (Developmental Studies Hybridoma Bank, University of Iowa, Iowa City, Iowa, USA). […]

[5] = system: MSCs derived from stromovascular cells (SVCs); assay: Adipogenic differentiation of murine MSCs derived from stromovascular cells (Oil Red O, qRT-PCR); assay type: cell-based, mouse
Description: (§3) Subcutaneous fat pads were dissected from WT and PEDF-KO mice and digested in HBSS medium containing 3% BSA (American Bioanalytical, Natick, Mass., USA), 0.8 mg/ml of type 2 collagenase (Worthington Biochemical Corp., Lakewood, N.J., USA), 1.2 mM CaCl2, and 1.0 mM MgCl2 for 1 h and 15 min in a shaking 37° C. water bath. Stromovascular fractions (SVFs) were obtained after centrifugation at 300 g for 5 min. Cells were initially plated in proliferation medium (DMEM plus 10% FBS and bFGF; 1 ng/ml) until 70-80% confluence. Adipogenic differentiation was initiated with differentiation medium (5 μg/ml insulin, 10 nM dexamethasone, 0.5 mM IBMX, and 1 μM rosiglitazone) and added on d 0 for 72 h. Afterward, cells were maintained in DMEM with 10% FBS and 5 μg/ml insulin for an additional 5 d until full differentiation as confirmed by light microscopy and Oil Red O staining. Osteoblast differentiation cocktail (10 nM dexamethasone, 50 μg/ml ascorbic acid, and 10 mM β-glycerophosphate) was used for 21 d.
(§4) RNA was isolated and processed using the RNAEasy mini kit (Qiagen, Valencia, Calif., USA). Primer probe sets were obtained from a commercial source (Applied Biosystems, Foster City, Calif., USA), and qRT-PCR was performed on a TaqMan ABI 7500 system (Applied Biosystems) as described previously (Schmitz et al., 2011, Am J Pathol, 179: 2990-2999). Target gene expression was normalized against 18S ribosomal RNA using the ΔΔCt method. On sorted adipose populations, qRT-PCR was performed on a Roche Lightcycler 480 (Roche, Basel, Switzerland) using a SYBR FAST qPCR kit (Kapa Biosystems, Woburn, Mass., USA; KK4611), and target gene expression was normalized to TBK1.
(§5) For Oil Red O staining, cells were washed in PBS and fixed in 10% formalin for 20 min. Cells were then stained with 0.5% Oil Red O for 15 min. For Alizarin Red staining, cells were washed in PBS and fixed in 10% formalin for 20 min. After being washed twice in ddH2O, cells were stained in 2% Alizarin Red S (pH 4.1). Cells were washed ≥3 times in ddH2O, and images were acquired with a Zeiss Axiophot microscope (Carl Zeiss, Oberkochen, Germany). Representative images are shown at ×40 view.

[6] = system: hMSCs; assay: Adipogenic differentiation of human MSCs; assay type: cell-based; settings: PEDF started on day 0, adipogenic medium 10 days
Description: as §1
RNA was isolated and processed using the RNAEasy mini kit (Qiagen, Valencia, Calif., USA). Primer probe sets were obtained from a commercial source (Applied Biosystems, Foster City, Calif., USA), and qRT-PCR was performed on a TaqMan ABI 7500 system (Applied Biosystems) as described previously (Schmitz et al., 2011, Am J Pathol, 179: 2990-2999). Target gene expression was normalized against 18S ribosomal RNA using the ΔΔCt method. […]

[7] = system: SVCs from PEDF KO mice; assay: Osteoblast differentiation and mineralization of PEDF KO SVCs (Alizarin Red, qRT-PCR); assay type: cell-based, mouse
Description: as §3, §4, §5

[8] = system: femurs in PEDF KO mice; assay: Biomechanical testing of femurs of vehicle and PEDF treated PEDF KO mice; assay type: in vivo, mouse; settings: versus vehicle
Excerpt: Further experiments were done to compare the biomechanical properties of PEDF-treated and vehicle-treated bones. […] Femur length was not different between vehicle or PEDF-treated groups. PEDF increased bone stiffness, the slope of the load applied to the bone vs displacement of bone. Maximum load was not different in PEDF-treated mice. The deformation of bone after the yield point, a measure of bone ductility increased after PEDF treatment. Displacement of femurs at maximum load and at fracture (Fx) point increased after PEDF treatment, indicating bones that are less brittle with force applied.

[9] = system: 3T3-L1 adipocyte precursors; assay: PPARγ expression in 3T3-L1 adipocyte precursors with vector or LRP6 shRNA; assay type: cell-based, mouse; settings: PEDF 10 nM, 48 h
Description: as §2

[10] = system: PEDF knock-out mice; assay: PEDF i.p. treatment of young and old PEDF KO mice, trabecular bone; assay type: in vivo, mouse; settings: young (200 ng i.p. every third day, two weeks) and old (25 μg/kg i.p. every third day, 4 weeks) PEDF KO mice
Excerpt: A ScanCo μCT 35 scanner (ScanCo Medical AG, Brüttisellen, Switzerland; Yale Center Core for Musculoskeletal Disorders) was used to assess the distal femur for trabecular and cortical bone morphology from 21-d-old WT and PEDF-KO mice in a blinded manner. Axial, sagittal, and coronal images were obtained at standardized sites, and measures of trabecular and total bone volumes and other parameters of bone density were obtained (Bouxsein et al., 2010, J Bone Miner Res, 25: 1468-1486). For histology, femurs and tibiae of 14- and 26-d-old mice were dissected, cleaned, and fixed in 70% ethanol, then further dehydrated through graded ethanols, cleared in toluene, and embedded in methyl methacrylate (MMA). After polymerization, MMA blocks were removed from the mold, cut to size, sanded, and polished on a Buehler Metasery (Buehler, Lake Bluff, Ill., USA). Longitudinal sections of […] were cut using a Reichert-Jung RM 2165 microtome (Leica Microsystems, Jena, Germany) using a D-profile tungsten carbide knife, mounted on charged slides, and stained with either Goldner's trichrome or Toluidine Blue O (pH 3.7).
Experiments were conducted to examine the effects of PEDF treatment on bone in young (44 days) and old (6 month) PEDF knock-out mice. PEDF (200 ng) was delivered i.p. every third day for two weeks in young mice. […]

[11] = PEDF started on day 3, both WT and KO SVCs
[12] = osteoblast differentiation, KO SVCs, day 21
[13] = PEDF 500 ng/ml added to IWP-2-treated hMSCs

## DPFFKVPVNKLAAAVSNFGYDLYRVRSSTSPTTN [PEDF 34-mer, PEDF-derived 34-mer peptide]
[1]; 100 nM peptide with 50 ng/ml Wnt3a
  levels of active β-catenin: increases the levels of active β-catenin

## DPFFKVPVNALAAAVSNFGYDLYRVRSSTSPTTN [SEQ ID NO: 4, mutated K→A PEDF 34-mer peptide]
[2]; 100 nM peptide with continuous Wnt3a 50 ng/ml, 21 days
  Alizarin red quantitation relative to native PEDF 34-mer: gain of function properties
[2]; added last 8 of 21 days
  mineralization of hMSCs, final phase addition: stimulates mineralization
[2]; added last 8 of 21 days, continuous Wnt3a 50 ng/ml
  osteoblast mineralization, peptide added in the last eight days: comparable to the full-length protein added for 21 days
[1]; hMSC differentiated for 21 days, 50 ng/ml Wnt3a and 100 nM peptide
  expression of osterix (OSX): increases the expression of osterix (OSX)

## Cc1ccc2nc(NC(=O)CSc3nc4c(c(=O)n3-c3ccccc3)SCC4)sc2c1 [IWP-2, reference compound]
[3]; IWP-2 2 μM incubation 48 h alone
  LRP6 phosphorylation (endogenous Wnt production): near absence of LRP6 phosphorylation

B1: Pigment epithelium-derived factor (protein)
chain: QNPASPPEEGSPDPDSTGALVEEEDPFFKVPVNKLAAAVSNFGYDLYRVRSSTSPTTNVLLSPLSVATALSALSLGAEQRTESIIHRALYYDLISSPDIHGTYKELLDTVTAPQKNLKSASRIVFEKKLRIKSSFVAPLEKSYGTRPRVLTGNPRLDLQEINNWVQAQMKGKLARSTKEIPDEISILLLGVAHFKGQWVTKFDSRKTSLEDFYLDEERTVRVPMMSDPKAVLRYGLDSDLSCKIAQLPLTGSMSIIFFLPLKVTQNLTLIEESLTSEFIHDIDRELKTVQAVLTVPKLKLSYEGEVTKSLQEMKLQSLFDSPDFSKITGKPIKLTQVEHRAGFEWNEDGAGTTPSPGLQPAHLTFPLDYHLNQPFIFVLRDTDTGALLFIGKILDPRGP
notes: Full-length recombinant human PEDF generated in HEK cells; 50-kDa secreted protein of the SERPIN superfamily
[4]
  alkaline phosphatase by staining and protein levels: increased alkaline phosphatase
[5]; PEDF 500 ng/ml
  PPARγ suppression, day 1 versus day 3 start: greater when PEDF was started on day 1 compared with day 3
[5]; PEDF 500 ng/ml added on day 1 or day 3, assessed day 8
  adipogenesis (Oil Red O staining): significantly inhibited adipogenesis
[5]; PEDF 500 ng/ml started on day 1 or day 3
  expression of PPARγ, PGC1α, CEBPα and adipocyte marker ADIPOQ: suppression
[5]; [11]
  inhibition of PGC1α expression: ~50%
  inhibition of PPARγ expression: ~50%
[5]; compared with control-treated cells, P<0.001
  suppression of PPARγ, adiponectin, and other adipocyte markers: ~90%
[6]
  adipogenesis of hMSCs: inhibits adipogenesis
  proadipogenic transcription factors in hMSCs: inhibited proadipogenic transcription factors
[7]; PEDF treatment for 21 days, KO SVCs, versus vehicle-treated cells
  Alizarin Red staining (mineralization): increased Alizarin Red staining
[7]; day 21 of differentiation
  Collagen Ia expression: not different
  Runx2 expression: did not affect
  Sp7 expression: did not affect
[7]; [12]
  reduction of PPARγ expression: ~80%
  transforming growth factor β (TGF-β) expression: reduced the expression
[8]
  bone stiffness (slope of load vs displacement): increased
  deformation of bone after the yield point (bone ductility): increased
  displacement of femurs at fracture (Fx) point: increased
  displacement of femurs at maximum load: increased
  femur length: not different
  flexibility of femurs: enhances the flexibility
  maximum load: not different
[9]
  PPARγ expression in cells with LRP6 knockdown: induced PPARγ expression
  PPARγ expression in control (vector) cells: significantly inhibited PPARγ expression
[10]
  trabecular bone volume (BV): increases
  trabecular thickness: increases
[3]; [13]
  LRP6 phosphorylation in IWP-2-treated cells: led to LRP6 phosphorylation
  active β-catenin in IWP-2-treated cells: enhanced levels of active β-catenin
[3]
  LRP6 phosphorylation: increased LRP6 phosphorylation
[3]; medium conditions where endogenous Wnt proteins would be present
  active β-catenin levels: only minimal effects

B2: Wnt3a (protein, UniProt P56704 19-352, looked up)
Protein Wnt-3a: SYPIWWSLAVGPQYSSLGSQPILCASIPGLVPKQLRFCRNYVEIMPSVAEGIKIGIQECQHQFRGRRWNCTTVHDSLAIFGPVLDKATRESAFVHAIASAGVAFAVTRSCAEGTAAICGCSSRHQGSPGKGWKWGGCSEDIEFGGMVSREFADARENRPDARSAMNRHNNEAGRQAIASHMHLKCKCHGLSGSCEVKTCWWSQPDFRAIGDFLKDKYDSASEMVVEKHRESRGWVETLRPRYTYFKVPTERDLVYYEASPNFCEPNPETGSFGTRDRTCNVSSHGIDGCDLLCCGRGHNARAERRREKCRCVFHWCCYVSCQECTRVYDVHTCK
notes: prototypical Wnt agonist ligand
[2]; Wnt3a 50 ng/ml continuous, 21-day-old hMSC cultures
  mineralization (Alizarin red) with continuous Wnt3a versus controls: diminished mineralization
[3]
  LRP6 phosphorylation: increased LRP6 phosphorylation
[1]; 50 ng/ml Wnt3a alone
  active β-catenin under unopposed and continuous Wnt3a: suppresses active β-catenin
